# Measured values reported in the supplement of paper PMC12636428.
# Test system: Saccharomyces cerevisiae
# Test: transcriptional activation domain activity (GFP:mCherry ratio, weighted mean of sorted bins, harmonized to initial dataset scale) (arbitrary fluorescence ratio units); higher = stronger transcriptional activation
# Conditions: beta-estradiol 1 µM; induction time 4 h
# How it was run: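 For this assay, yeast diploids with a GFP reporter carried barcoded protein tiles at URA3, each fused to an estradiol-inducible synthetic transcription factor. Induction was a 1:5 dilution into SC with 1 uM beta-estradiol for 4 hours at 30 °C, followed by sorting into 8 bins by GFP:mCherry ratio and barcode sequencing. Tiles under 50 reads were dropped, and activation activity was calculated as the read-weighted mean of bin median fluorescence, averaged across barcodes and linearly mapped onto the initial dataset scale.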
row,Sequence,transcriptional activation domain activity
1,MDRQQNGSKRTESVRQPVSCEPCRRRKIKCSRSHPPCDTCRRRRCPDSCVYKS,43700
2,MDRVSIRFTLAISLADLGQAVLHMIGSKFSWLSCGLLLGISRFLCLFYIFLSV,57100
3,MDSGGRLEVHLFFFLLLFVQMWFSWVYFLFSLVFLTLLTRDLGGLLLLVYSFC,34700
4,MDSGTLVGGANADGLVEIPLPGHDSIHLHVTHPRVMFLLTFLVSAACKRDPVS,27100
5,MDSLFFFFFLLFFFSSCFGFGCSVGLFLFFSVVCNLYFCLLRSYMYLLALLFT,51500
6,MDSQDAGRVSSQGQAVKEKQRSRTGCRTCKSRKVKCDETRGGCRNCERLNLPC,14700
7,MDSRPAKRPRKTETEDTLDDTDKKPHKKPPLSCAECRRLKLKVATLAASVIVY,69000
8,MDSRPGSFATGVFRAQPVDNTPRKIQKRNRPPVSCLLCRTRKVKCNRQQPCER,33500
9,MDTLSSSFAHILCIFFYLHPFLLFFSFSLFPFFVFATPATRTGVRLFYFFFLF,41600
10,MDTSNSWFDASKVQSLNFDLQTNSYYSNARGSDPSSYAIEGEYKTLATDDLGN,14200
11,MDTTDASRGRSKACTYCNKSKTKCMWAGEPGAGACQRCTRLRRSCILPEKGER,10200
12,MDVEAKGRADRDAKRNPTACEHCRAARTRCQPSEQPGVCKKCLALKRECISRT,16500
13,MDVGIYVCICFDGLFSFGEFFYVVYTSFINHTIEFLCLFGFHFLFWVLIFFWV,50900
14,MDYVWRRVRWIRVRKHMVFIATLLEPFTECMLVCLIGALSARHLFDIRLVVFY,49000
15,MEACMSIMMIPMILRNGTVFSFFFRVMLYFTCIVSMAGWLVPGSYWLWFGLVC,48100
16,MEAKEGRPGNAFACERCRKHKVRCVPSDAPGICQRCQRARAPCIEHVARRRPA,31400
17,MEAREGRAGNAFACERCRKHKVRCVPSGTAGICQRCQKARVECIEHVARRRPA,29100
18,MEASFYFSSSSFCSAFLFFYFFILFFWGGFPLFPSQLFLSLSLLFIHTLSLFP,26700
19,MEDAADDGAASTKKAKVSKKRKKDIESDGEQEKPAKTPKTKLKLNNKTPKEAS,48700
20,MEDAGDDATPATKKGKGMKKRKKGEESDGENEKPAKTPKTKLKLTNKTPKEAS,36600
21,MEEPSGDASRRRNGPRLYHKKSRLGCIRCKQRRVKCDEKRPACTGCSRHAVEC,60500

row,Sequence,transcriptional activation domain activity
1,MEFGSWGWKSIFFIFFSFRDFMVWHGGVSFFLPYINDFYIFVLIFYCFIYSAS,59800
2,MEFPTPTCFLSFFSFFFHIVFVAYCVAYFSLSRFLFVPSFFFLFLLSYFRLLQ,67500
3,MEFSFTMVGIFYFLYSLAWSFSFLFFISYDHSLAGLVTIVKAFLISYYFFIFL,26200
4,MEGGRGSRGSHENNELFFFLSLHSRFFFFYLFIYFSLLFFSFTIYFMVFFFFF,54600
5,MEGLVVCSVWIFSCVWSLWLALCIWIFCLFVGVWLVRIWRGPGLYLLFFFFFL,71000
6,MEGMQVEQDIARGSRKPHRKSRLGCGNCKQRRVKCDERKPSCDRCVKHNILCD,23800
7,MEGRHISVIKQLYGLYWLDVWKISLQLWSEVKGMYHVLQQNLWIITLFPFFAA,64000
8,MEGRVGGDQKGGGFIFVYGSGVLDWGVFFRFIYISLSFFVWGLFLCVSFAFVL,41200
9,MEGSEKAARVAPPAQRVRTGCLTCRKRHLKCDEAKPTCENCRKGRRECVRGLR,6710
10,MEGYELRMVALLLFSLLFVVAKKRGVHTNPSRLAVFVVLLRLCFVFCCLLFLA,85000
11,MEHFSLFLFRFFFLFFVFLFLRRRGGGFGTGFGFWFLVFGFWFLVFGFWFWLW,64000
12,MEHLVYHAPGVLPKMECRPPFRLCLLLLILFLFLFLCCQKVPLWIFACRFCCG,41200
13,MEHQDFFGFDYGLFDDNFPITSNSLRYDDLFHFEPLDLEQDDLGWGLPDPSLS,143000
14,MEILKLPFYILHVLPLPIRGALATLTPLVRFHTVVVSLSCLLSLRCIYLLFFH,75300
15,MELFFGLSFFLAYVPGCYSFLLTILIPLLCYYIFTRYLRCLVLHGLGFFFSLF,77000
16,MELFFRLFFWLMSWLLQLTHYFNTFTVLLYIHSLFSGVWFCKVLGFSFFFLYH,51600
17,MELLSLLFFLFFFFFLYSLFGYASTLSFLPHHLFSFLTIYFISYFCDILFFEF,44900
18,MELSFFSVSSDGDLFFLLLFLIRGVLEKYFFDWYFDLPLWVFVCFFLFVFLTL,54600
19,MELVLHCFYLGAIRKPGHTYDSWSSDTPFQLSMIGDSNLLIIWLWLLIPWRSF,80500
20,MELYGTHGVFYYYFFVIGFFLDYHSFLSPLLSLLMRIEKDVSGIFFFVFLFFC,63700
21,MEPRLGHPALLVYSLLLLLLILRWKMFSFLCVVFQWRCIMLFLVFLVFCWGVG,35900

row,Sequence,transcriptional activation domain activity
1,MEQSMGFMIHVYITVIPLGDVYEVLVFLILRSILPLPPGFLCLSLLLHDLFFI,62400
2,MEQTLATNQSLQPVKRVACNRCRTQKLKCNPSGEGRGSSSKCVRCAKAGTDCT,38900
3,MEQTNKEDSGSDTQACPICDAPAVNRCSRCASVYYCSQEHQKEVRYESPSNAL,49900
4,MERNGNVVWILFWHFHLLFFWAMEKSFDFLHSKTLSPFWFITYFLYLLILFYL,31900
5,MESAKKAVESVAEGIKKVAISGDQKPAAGGKKEGGKKEKKAAKAGAEVSSGPL,34300
6,MESHSFLPICRYFWGVMPQLMPSFYLNLLSWFSLCFIVFHWLHTVVIFPYLLL,49200
7,MESRARISTSVILYLCARLRSIAVITYMIVVRSLSTFVYLAQRFFILLWPIIW,55600
8,MESVTCFYFHLFRFFHSRLLVFVLMLCFESIVSLFRFLCIFVFSLFFYIFFFF,75500
9,METATPPQPKKGRRGNPKTRTGCVTCKMRRVKCDEAKPQCKRCISTGRTCDGY,15500
10,METPEQPSAGRRRPHRKSRTGCAECRRRRIKCDEVKPACTACVRHDHPCVYPS,22000
11,METSASARSPPPSTRQPSAPRRVRAALACQRCKGRKQKCEGGQPSCRSCIKAG,60700
12,METTVSGQSSQPPAANDDQEPTKKRKRDKYVGKACGPCKRRKIRCGGGVPCES,36300
13,MEVCSVWISSLWFFVFSAFSVLGLWSLVFGIWSFRESGWYMGPGFFFFFFLIL,63100
14,MEVGSAAVAGPVLAAAHVPRKRRRPALSCEQCRKRKVKCDRTSPCGQCTRSKG,32100
15,MEVRQRKPGSGRPKGSKNKAKPPGTEPRPRKPGSGRPKGSKNKTTLAAAAAAA,30900
16,MEVVEGGGWKSFVYSCIRVIFLWGLDFGYFGLVACLISFCIGIFFSFFFPHYF,27200
17,MEWHLLGSCLAGLVWGVFYIFFFFAACLIGFFPYHYHYLLLLLVLLTTNILFV,49500
18,MEWLLHTVYVVAIKDTRAWGGFSPFQMSMVGYFNLKLIWLKLLIIWRFFRLWA,76000
19,MEWMGGWLVLGGWIYLFCSVMFKLDRLVVFLEVFFFYLLLCVIVLVMGLVVML,38800
